# B1: TNIP1 AHD1-UBAN construct (TNIP1^417-509) (domain or fragment, human, UniProt Q15025 417-509, looked up)
# chain: QRLNKALEEALSIQTPPSSPPTAFGSPEGAGALLRKQELVTQNELLKQQVKIFEEDFQRERSDRERMNEEKEELKKQVEKLQAQVTLSNAQLK
# notes: pET28a construct; For NMR the protein was 15N-labelled (minimal medium with 15NH4Cl); also called TNIP1 AHD1-UBAN region; AHD1-UBAN domain; source: E. coli BL-21(DE3) Rosetta 2, heat lysis, purified (HisTrap HP, Superdex 75); not shown: His6, C-terminal, kept
# Target: the molecule itself
# Assay: AUC; sedimentation velocity, 20 uM (0.25 mg/mL), 20 mM sodium phosphate pH 8.0, 200 mM NaCl, 20 C, 50,000 RPM; monomer and dimer
protein,measurement,value
B1,stoichiometry N,2
